{"source": "patent US8487082B2", "about": "“Synthetic scFv analogue to the 6313/G2 (anti angiotensin II type 1 receptor) monoclonal antibody variable regions” (Queen Mary & Westfield College, priority 2008, dated 2013)", "molecules": {"B1": {"name": "R6313/G2: murine scFv analogue of the 6313/G2 anti-AT1 receptor monoclonal antibody variable domains, SEQ ID NO:15 (protein)", "scFv": "YAAQPAMAQVKLQQSGPELEKPGASVKISCKASGYSFTGYNMNWVKQSNGKSLEWIGNIDPYYGGTTYNQKFKGKATLTVDKSSSTAYMQLKSLTSEDSAVYYCAREVDYWGQGTTVTVSSGGGGSGGGGSGGGGSDIELTQSPASLAVSLGQRATISYRASKSVSTSGYSYMHWNQQKPGQPPRLLIYLVSNLESGVPARFSGSGSGTDFTLNIHPVEEEDAATYYCQHIRELTRSEGTKLEIKRAAAGAPVPY", "modifications": "12D"}}, "key": {"breast cancer cells": {"system": "breast cancer cells", "assay": "Breast cancer cell proliferation (summary statement)", "type": "cell-based", "procedure": "Confluent cell monolayers were removed from tissue culture flasks using trypsin/EDTA. Cells (15×10^3 per well) were seeded into 96 well tissue culture plates containing the appropriate medium for each cell line. […] Cell viability was assessed by the ability of metabolically active cells to reduce 2,3-bis[2-Methoxy-4-nitro-5-sulphophenyl]-2H-tetrazolium-5-carboxyanilide inner salt (XTT) to the coloured formazan product. Absorbance was measured using a Multiskan Ascent microplate reader (Thermo Labsystem, Helsinki, Finland) at a wavelength of 450 nm and a reference wavelength of 630 nm. Each measurement was performed in triplicate. IC50s were calculated using a non-linear regression formula using GraphPad Prism v4.0 software (GraphPad Software Inc, San Diego Calif., USA)."}, "[1]": {"system": "cancer cells in hollow fibers", "assay": "In vivo hollow fiber assay (summary statements)", "design": "species or system nu/nu mice", "procedure": "(§1) Hollow Fiber procedures followed the method of Hollingshead. (Hollingshead et al Life Sci 57 131-41 (1995)).\nCell-loaded hollow fiber segments were incubated at 37° C. in culture medium overnight before implantation into pure strain 5-6 week old female balb/c nu/nu mice. Fibers were implanted into the animals under anaesthesia (2% Isofluorane). Three 2 cm fibers, each containing one of the cell lines MCF-7, T47D, or MDA-MB-231, were implanted at both subcutaneous (s.c.) and intraperitoneal (i.p.) sites into each animal. For i.p. implants, a small incision was made through the skin and musculature of the ventral abdominal wall. Fibers were placed into the peritoneal cavity and both incisions were closed with metallic suture clips (Harvard Instruments, Edenbridge UK). For s.c. implants, a small incision was made dorsally. The fibers were implanted to the left of the dorsal midline in a cranial direction. The small incision was closed with metallic suture clips. […]\nCell viability was measured using a modified MTT assay. […] An aliquot (190 μl) from each well was transferred to a 96 well plate and absorbance read at 540 nm using a Multiskan Ascent photometric microplate reader (Thermo labsystem). Treated values were calculated as a percentage of the controls."}, "MCF-7 cells": {"system": "MCF-7 cells", "assay": "In vivo hollow fiber assay", "design": "species or system balb/c nu/nu mice", "procedure": "as §1\n(§2) Polyvinylidene difluoride (PVDF) hollow fibers (500 kDa cut-off, 1 mm inner diameter; Spectrum Europe B.V., Breda, Netherlands) were flushed through with 70% ethanol using a blunt 21 gauge needle and 10 ml syringe. Fibers were then immersed in 70% ethanol for 72 hours, flushed through again with 70% ethanol, then distilled water, and then autoclaved at 131° C. Finally, before loading cell suspensions, fibers were flushed through with RPMI 1640 culture medium. Cells (MCF-7, T47D, and MDA-MB-231) were introduced into fibers at densities of 2.5 to 3.0×10^6 cells/ml. Fibers were then heat-sealed at 2 cm intervals and placed in Petri dishes containing 3 ml of the cell appropriate medium.\n(§3) Cell-loaded hollow fiber segments were incubated at 37° C. in culture medium overnight before implantation into pure strain 5-6 week old female balb/c nu/nu mice. Fibers were implanted into the animals under anaesthesia (2% Isofluorane). Three 2 cm fibers, each containing one of the cell lines MCF-7, T47D, or MDA-MB-231, were implanted at both subcutaneous (s.c.) and intraperitoneal (i.p.) sites into each animal. For i.p. implants, a small incision was made through the skin and musculature of the ventral abdominal wall. Fibers were placed into the peritoneal cavity and both incisions were closed with metallic suture clips (Harvard Instruments, Edenbridge UK). For s.c. implants, a small incision was made dorsally. The fibers were implanted to the left of the dorsal midline in a cranial direction. The small incision was closed with metallic suture clips.\n(§4) Mice (n=5/group) with hollow fiber implants were treated with R6313/G2 (0.07 mg/kg (2.5 nmol/kg), and 0.7 mg/kg (25 nmol/kg) in 0.1 ml PBS, subcutaneously) twice per day for six days. Control animals (n=5) received vehicle alone. 24 hours after the last injection, animals were killed by cervical dislocation and the fibers were recovered and transferred to pre-warmed RPMI 1640 medium containing 20% FBS for 30 minutes.\n(§5) Cell viability was measured using a modified MTT assay. Fibers were incubated in RPMI 1640 with 20% FBS containing 1 mg/ml MTT, and incubated at 37° C. under […], 5% CO2 for 4 hours. The reagent was aspirated, and 2 ml sterile filtered 2.5% protamine sulphate (0.9 g NaCl, 2.5 g protamine sulphate in 100 ml water) was added. Specimens were stored at 4° C. for a minimum of 24 hours in the dark to fix the formazan product. Fresh protamine sulphate (2.5%) was added and fibers were stored for a further 2 to 4 hours at 4° C. Each fiber was transferred to a well in a 24 well plate, cut in half and air-dried overnight, protected from light. Dimethyl sulphoxide (DMSO) (300 μl) was added to each well and the formazan product extracted. An aliquot (190 μl) from each well was transferred to a 96 well plate and absorbance read at 540 nm using a Multiskan Ascent photometric microplate reader (Thermo labsystem). Treated values were calculated as a percentage of the controls."}, "MDA-MB-231 cells": {"system": "MDA-MB-231 cells", "assay": "In vivo hollow fiber assay", "design": "species or system balb/c nu/nu mice", "procedure": "as §1, §2, §3, §4, §5"}, "T47D cells": {"system": "T47D cells", "assay": "In vivo hollow fiber assay", "design": "species or system balb/c nu/nu mice", "conditions": "i.p. site, 0.7 mg/kg (25 nmol/kg) twice per day", "procedure": "as §1, §2, §3, §4, §5"}, "MCF-7 cell xenografts": {"system": "MCF-7 cell xenografts", "assay": "In vivo xenograft assay", "conditions": "nu/nu mice, 13 nmol/kg", "procedure": "Mice were injected s.c. on the right-flank, with 150 μl sterile PBS containing 7.5×10^6 MCF-7 cells. Tumour cells were allowed to grow for 4 weeks without hormone support, thereafter mice received weekly s.c. injections of 17β-oestradiol valerate (0.1 mg/Kg body weight), in sesame oil (Kasukabe et al., Breast Cancer Res. 7(6) R1097-110 (2005)) for a further 8 weeks. Animals were monitored daily for general health, and body weights were measured twice-weekly. Tumour size was measured 3 times per week with slide callipers, and volumes were calculated as (L×W^2)/2, where L and W are the major and minor diameters, respectively. Once tumour volumes reached 150 to 200 mm^3, mice were randomized to treatment and control groups of 8 to 10 per group. Mice were treated by subcutaneous injections of R6313/G2 in sterile PBS (0.1 ml) at doses of 0.4 mg/kg (13 nmol/kg), 0.8 mg/kg (27 nmol/Kg), and 1.36 mg/kg (45.3 nmol/kg) body weight, twice per day for seven days. Control mice received sterile PBS. […] Relative body weights (%) were calculated as (Wt/Wi)×100, where Wt is the body weight at any given time and Wi is the body weight at treatment initiation. Net tumour volume was calculated as Vt-Vi, where Vt is the tumour volume at any given time and Vi is the tumour volume at the start of treatment, and expressed as a percentage of Vi."}}}
{"molecule": "B1", "values": [{"measurement": "breast cancer cell proliferation", "setting": "breast cancer cells; in the absence of angiotensin II", "value": "no effect"}, {"measurement": "breast cancer cell proliferation", "setting": "breast cancer cells; in the presence of up to 100 nmol angiotensin II per L", "value": "significantly inhibits breast cancer cell proliferation"}, {"measurement": "in vitro concentration giving an anti-cancer cell effect equivalent to 25 nmol/Kg in vivo", "setting": "[1]; comparison of in vivo dose 25 nmol/Kg with in vitro", "value": 3.3, "unit": "µmol/L"}, {"measurement": "cancer cell growth in hollow fibers", "setting": "[1]; intact nu/nu mice bearing cancer cells in hollow fibers", "value": "significantly inhibited cancer cell growth"}, {"measurement": "cell survival in hollow fibers in vivo", "setting": "MCF-7 cells; MCF7, i.p. site, 0.07 and 0.7 mg/kg (2.5 and 25 nmol/kg) twice per day", "value": "inhibited MCF7 cell survival"}, {"measurement": "cell survival in hollow fibers in vivo", "setting": "MCF-7 cells; MCF-7, s.c. site", "value": "dose dependently inhibited cell survival"}, {"measurement": "cell survival in hollow fibers in vivo", "setting": "MDA-MB-231 cells; MBA MB 231, i.p. site, 0.7 mg/kg (25 nmol/kg) twice per day", "value": "inhibited"}, {"measurement": "cell survival in hollow fibers in vivo", "setting": "MDA-MB-231 cells; MDA MB 231, s.c. site, highest dose", "value": "inhibited at the highest dose"}, {"measurement": "cell survival in hollow fibers in vivo", "setting": "T47D cells", "value": "inhibited"}, {"measurement": "cancer cell growth, xenograft tumours", "setting": "MCF-7 cell xenografts", "value": "significantly inhibited cancer cell growth"}]}
